The labels stand for the following.
B1: His-GST-N-Cbl wild-type (residues 47-435) (domain or fragment, UniProt P22681 47-435, looked up)
chain: PPGTVDKKMVEKCWKLMDKVVRLCQNPKLALKNSPPYILDLLPDTYQHLRTILSRYEGKMETLGENEYFRVFMENLMKKTKQTISLFKEGKERMYEENSQPRRNLTKLSLIFSHMLAELKGIFPSGLFQGDTFRITKADAAEFWRKAFGEKTIVPWKSFRQALHEVHPISSGLEAMALKSTIDLTCNDYISVFEFDIFTRLFQPWSSLLRNWNSLAVTHPGYMAFLTYDEVKARLQKFIHKPGSYIFRLSCTRLGQWAIGYVTADGNILQTIPHNKPLFQALIDGFREGFYLFPDGRNQNPDLTGLCEPTPQDHIKVTQEQYELYCEMGSTFQLCKICAENDKDVKIEPCGHLMCTSCLTSWQESEGQGCPFCRCEIKGTEPIVVDPFD
notes: Cbl (c-Cbl), N-terminal fragment with TKBD, linker helix region and RING domain (N-Cbl), residues 47-435; Modified pGEX4T1 with N-terminal His-GST tag followed by a thrombin or TEV cleavage site; tag not cleaved for SPR; also called WT; wild-type N-Cbl; not shown: His, N-terminal, kept; GST, N-terminal, kept
B2: His-GST-N-Cbl Y371S (residues 47-435) (domain or fragment, UniProt P22681 47-435, looked up)
chain: PPGTVDKKMVEKCWKLMDKVVRLCQNPKLALKNSPPYILDLLPDTYQHLRTILSRYEGKMETLGENEYFRVFMENLMKKTKQTISLFKEGKERMYEENSQPRRNLTKLSLIFSHMLAELKGIFPSGLFQGDTFRITKADAAEFWRKAFGEKTIVPWKSFRQALHEVHPISSGLEAMALKSTIDLTCNDYISVFEFDIFTRLFQPWSSLLRNWNSLAVTHPGYMAFLTYDEVKARLQKFIHKPGSYIFRLSCTRLGQWAIGYVTADGNILQTIPHNKPLFQALIDGFREGFYLFPDGRNQNPDLTGLCEPTPQDHIKVTQEQYELSCEMGSTFQLCKICAENDKDVKIEPCGHLMCTSCLTSWQESEGQGCPFCRCEIKGTEPIVVDPFD
notes: Cbl (c-Cbl), N-terminal fragment with TKBD, linker helix region and RING domain (N-Cbl), residues 47-435; mutation identified in MDS/MPN clinical samples; Tag not cleaved for SPR; not shown: His, N-terminal, kept; GST, N-terminal, kept
B3: His-GST-N-Cbl Y371E (residues 47-435) (domain or fragment, UniProt P22681 47-435, looked up)
chain: PPGTVDKKMVEKCWKLMDKVVRLCQNPKLALKNSPPYILDLLPDTYQHLRTILSRYEGKMETLGENEYFRVFMENLMKKTKQTISLFKEGKERMYEENSQPRRNLTKLSLIFSHMLAELKGIFPSGLFQGDTFRITKADAAEFWRKAFGEKTIVPWKSFRQALHEVHPISSGLEAMALKSTIDLTCNDYISVFEFDIFTRLFQPWSSLLRNWNSLAVTHPGYMAFLTYDEVKARLQKFIHKPGSYIFRLSCTRLGQWAIGYVTADGNILQTIPHNKPLFQALIDGFREGFYLFPDGRNQNPDLTGLCEPTPQDHIKVTQEQYELECEMGSTFQLCKICAENDKDVKIEPCGHLMCTSCLTSWQESEGQGCPFCRCEIKGTEPIVVDPFD
notes: Cbl (c-Cbl), N-terminal fragment with TKBD, linker helix region and RING domain (N-Cbl), residues 47-435; Tag not cleaved for SPR; not shown: His, N-terminal, kept; GST, N-terminal, kept
B4: His-GST-N-Cbl Y371F (residues 47-435) (domain or fragment, UniProt P22681 47-435, looked up)
chain: PPGTVDKKMVEKCWKLMDKVVRLCQNPKLALKNSPPYILDLLPDTYQHLRTILSRYEGKMETLGENEYFRVFMENLMKKTKQTISLFKEGKERMYEENSQPRRNLTKLSLIFSHMLAELKGIFPSGLFQGDTFRITKADAAEFWRKAFGEKTIVPWKSFRQALHEVHPISSGLEAMALKSTIDLTCNDYISVFEFDIFTRLFQPWSSLLRNWNSLAVTHPGYMAFLTYDEVKARLQKFIHKPGSYIFRLSCTRLGQWAIGYVTADGNILQTIPHNKPLFQALIDGFREGFYLFPDGRNQNPDLTGLCEPTPQDHIKVTQEQYELFCEMGSTFQLCKICAENDKDVKIEPCGHLMCTSCLTSWQESEGQGCPFCRCEIKGTEPIVVDPFD
notes: as for B3
B5: His-GST-N-Cbl M222E (residues 47-435) (domain or fragment, UniProt P22681 47-435, looked up)
chain: PPGTVDKKMVEKCWKLMDKVVRLCQNPKLALKNSPPYILDLLPDTYQHLRTILSRYEGKMETLGENEYFRVFMENLMKKTKQTISLFKEGKERMYEENSQPRRNLTKLSLIFSHMLAELKGIFPSGLFQGDTFRITKADAAEFWRKAFGEKTIVPWKSFRQALHEVHPISSGLEAEALKSTIDLTCNDYISVFEFDIFTRLFQPWSSLLRNWNSLAVTHPGYMAFLTYDEVKARLQKFIHKPGSYIFRLSCTRLGQWAIGYVTADGNILQTIPHNKPLFQALIDGFREGFYLFPDGRNQNPDLTGLCEPTPQDHIKVTQEQYELYCEMGSTFQLCKICAENDKDVKIEPCGHLMCTSCLTSWQESEGQGCPFCRCEIKGTEPIVVDPFD
notes: as for B3
B6: His-GST-N-Cbl Y368F (residues 47-435) (domain or fragment, UniProt P22681 47-435, looked up)
chain: PPGTVDKKMVEKCWKLMDKVVRLCQNPKLALKNSPPYILDLLPDTYQHLRTILSRYEGKMETLGENEYFRVFMENLMKKTKQTISLFKEGKERMYEENSQPRRNLTKLSLIFSHMLAELKGIFPSGLFQGDTFRITKADAAEFWRKAFGEKTIVPWKSFRQALHEVHPISSGLEAMALKSTIDLTCNDYISVFEFDIFTRLFQPWSSLLRNWNSLAVTHPGYMAFLTYDEVKARLQKFIHKPGSYIFRLSCTRLGQWAIGYVTADGNILQTIPHNKPLFQALIDGFREGFYLFPDGRNQNPDLTGLCEPTPQDHIKVTQEQFELYCEMGSTFQLCKICAENDKDVKIEPCGHLMCTSCLTSWQESEGQGCPFCRCEIKGTEPIVVDPFD
notes: as for B3
B7: His-GST-pTyr371-N-Cbl Y368F (residues 47-435) (domain or fragment, UniProt P22681 47-435, looked up)
chain: PPGTVDKKMVEKCWKLMDKVVRLCQNPKLALKNSPPYILDLLPDTYQHLRTILSRYEGKMETLGENEYFRVFMENLMKKTKQTISLFKEGKERMYEENSQPRRNLTKLSLIFSHMLAELKGIFPSGLFQGDTFRITKADAAEFWRKAFGEKTIVPWKSFRQALHEVHPISSGLEAMALKSTIDLTCNDYISVFEFDIFTRLFQPWSSLLRNWNSLAVTHPGYMAFLTYDEVKARLQKFIHKPGSYIFRLSCTRLGQWAIGYVTADGNILQTIPHNKPLFQALIDGFREGFYLFPDGRNQNPDLTGLCEPTPQDHIKVTQEQFELYCEMGSTFQLCKICAENDKDVKIEPCGHLMCTSCLTSWQESEGQGCPFCRCEIKGTEPIVVDPFD
modifications: phosphotyrosine at 371
notes: Cbl (c-Cbl), N-terminal fragment with TKBD, linker helix region and RING domain (N-Cbl), residues 47-435; Y368F is required for homogeneous phosphorylation at Tyr371; also called pY371 Y368F; source: generated as described previously [6]; not shown: His, N-terminal, kept; GST, N-terminal, kept
B8: His-GST-N-Cbl Y371A (residues 47-435) (domain or fragment, UniProt P22681 47-435, looked up)
chain: PPGTVDKKMVEKCWKLMDKVVRLCQNPKLALKNSPPYILDLLPDTYQHLRTILSRYEGKMETLGENEYFRVFMENLMKKTKQTISLFKEGKERMYEENSQPRRNLTKLSLIFSHMLAELKGIFPSGLFQGDTFRITKADAAEFWRKAFGEKTIVPWKSFRQALHEVHPISSGLEAMALKSTIDLTCNDYISVFEFDIFTRLFQPWSSLLRNWNSLAVTHPGYMAFLTYDEVKARLQKFIHKPGSYIFRLSCTRLGQWAIGYVTADGNILQTIPHNKPLFQALIDGFREGFYLFPDGRNQNPDLTGLCEPTPQDHIKVTQEQYELACEMGSTFQLCKICAENDKDVKIEPCGHLMCTSCLTSWQESEGQGCPFCRCEIKGTEPIVVDPFD
notes: as for B3
B9: His-GST-N-Cbl Y371H (residues 47-435) (domain or fragment, UniProt P22681 47-435, looked up)
chain: PPGTVDKKMVEKCWKLMDKVVRLCQNPKLALKNSPPYILDLLPDTYQHLRTILSRYEGKMETLGENEYFRVFMENLMKKTKQTISLFKEGKERMYEENSQPRRNLTKLSLIFSHMLAELKGIFPSGLFQGDTFRITKADAAEFWRKAFGEKTIVPWKSFRQALHEVHPISSGLEAMALKSTIDLTCNDYISVFEFDIFTRLFQPWSSLLRNWNSLAVTHPGYMAFLTYDEVKARLQKFIHKPGSYIFRLSCTRLGQWAIGYVTADGNILQTIPHNKPLFQALIDGFREGFYLFPDGRNQNPDLTGLCEPTPQDHIKVTQEQYELHCEMGSTFQLCKICAENDKDVKIEPCGHLMCTSCLTSWQESEGQGCPFCRCEIKGTEPIVVDPFD
notes: as for B2
B10: His-GST-N-Cbl Y371C (residues 47-435) (domain or fragment, UniProt P22681 47-435, looked up)
chain: PPGTVDKKMVEKCWKLMDKVVRLCQNPKLALKNSPPYILDLLPDTYQHLRTILSRYEGKMETLGENEYFRVFMENLMKKTKQTISLFKEGKERMYEENSQPRRNLTKLSLIFSHMLAELKGIFPSGLFQGDTFRITKADAAEFWRKAFGEKTIVPWKSFRQALHEVHPISSGLEAMALKSTIDLTCNDYISVFEFDIFTRLFQPWSSLLRNWNSLAVTHPGYMAFLTYDEVKARLQKFIHKPGSYIFRLSCTRLGQWAIGYVTADGNILQTIPHNKPLFQALIDGFREGFYLFPDGRNQNPDLTGLCEPTPQDHIKVTQEQYELCCEMGSTFQLCKICAENDKDVKIEPCGHLMCTSCLTSWQESEGQGCPFCRCEIKGTEPIVVDPFD
notes: as for B2
B11: His-GST-N-Cbl Y371D (residues 47-435) (domain or fragment, UniProt P22681 47-435, looked up)
chain: PPGTVDKKMVEKCWKLMDKVVRLCQNPKLALKNSPPYILDLLPDTYQHLRTILSRYEGKMETLGENEYFRVFMENLMKKTKQTISLFKEGKERMYEENSQPRRNLTKLSLIFSHMLAELKGIFPSGLFQGDTFRITKADAAEFWRKAFGEKTIVPWKSFRQALHEVHPISSGLEAMALKSTIDLTCNDYISVFEFDIFTRLFQPWSSLLRNWNSLAVTHPGYMAFLTYDEVKARLQKFIHKPGSYIFRLSCTRLGQWAIGYVTADGNILQTIPHNKPLFQALIDGFREGFYLFPDGRNQNPDLTGLCEPTPQDHIKVTQEQYELDCEMGSTFQLCKICAENDKDVKIEPCGHLMCTSCLTSWQESEGQGCPFCRCEIKGTEPIVVDPFD
notes: as for B2

The target in this assay is T1, UbcH5B S22R C85K–Ub (UniProt P62837 1-147; P0CG47 1-76, S22R | C85K, conjugated to Ub via an isopeptide bond (non-hydrolyzable amide linkage) | conjugated to UbcH5B via an isopeptide bond).
T1 construct: E2 ubiquitin-conjugating enzyme UbcH5B; ubiquitin (Ub); also called UbcH5B–Ub; E2–Ub; source: expressed, generated and purified as described previously [7]
The assay is described as follows: SPR; GST-Cbl variants coupled to CM-5 chips; UbcH5B–Ub as analyte at 0–120 μM; Biacore T200. Particulars: both partners purified. (In general: Surface plasmon resonance follows binding to a sensor surface in real time, without labels.)
As to B1, the Kd – broadly, the free concentration of one partner at which half of the binding sites on the other are occupied at equilibrium, for simple one-to-one binding – turned out to be 84 µM.

Molecule B2 displayed a Kd of 16 µM.

B3 yielded a Kd of 9 µM. This Kd lies about 1.8-fold lower than the previous one.

Regarding B4, binding was characterised by a dissociation constant (Kd) of 84 µM.

B5 returned a dissociation constant (Kd) of 14 µM.

The molecule B6 gave a dissociation constant (Kd) of 49 µM.

Consider B7, for which binding was put at a Kd of 2.6 µM.

Regarding B8, the affinity, expressed as Kd, was 30 µM. This Kd lies about 12-fold higher than the previous one.

As to B9, the affinity, expressed as Kd, was 39 µM.

B10: binding was put at a Kd of 36 µM.

Turning to B11, the Kd turned out to be 10 µM.

For the origin of these results see paper PMC5015263, “Casitas B-lineage lymphoma linker helix mutations found in myeloproliferative neoplasms affect conformation” (BMC Biology, 2016).
